The source of these data is patent US6942853.

The test system of data set [1] is CHO-derived latent TGFβ binding protein (LTBP).
In data set [2] the test system is 75 kDa glycosylated product of mIFNβ-LAP.
The subject of data set [3] is 75 kDa glycosylated product of LAP-mIFNβ.
For data set [4], the target named is LAP-mIFNβ fusion protein (human (LAP of TGFβ) fused to mouse (IFNβ)). As to the kind of experiment: cell-based or functional assay.
Sequence of LAP-mIFNβ fusion protein (human (LAP of TGFβ) fused to mouse (IFNβ)) (chain, as listed by the source limits assumed): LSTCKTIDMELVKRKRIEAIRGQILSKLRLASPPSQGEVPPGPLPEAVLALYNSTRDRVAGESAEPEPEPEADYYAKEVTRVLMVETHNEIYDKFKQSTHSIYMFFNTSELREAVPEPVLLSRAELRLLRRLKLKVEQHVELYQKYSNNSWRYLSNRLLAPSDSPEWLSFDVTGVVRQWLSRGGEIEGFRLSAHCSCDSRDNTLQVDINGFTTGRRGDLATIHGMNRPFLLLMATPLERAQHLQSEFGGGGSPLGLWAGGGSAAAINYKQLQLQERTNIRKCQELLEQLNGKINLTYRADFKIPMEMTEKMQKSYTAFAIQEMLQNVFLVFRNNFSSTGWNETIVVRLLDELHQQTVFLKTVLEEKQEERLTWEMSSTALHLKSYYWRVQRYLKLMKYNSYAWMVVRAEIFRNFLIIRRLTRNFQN

Sequence of recombinant pro-MMP9 (P14780 20-707): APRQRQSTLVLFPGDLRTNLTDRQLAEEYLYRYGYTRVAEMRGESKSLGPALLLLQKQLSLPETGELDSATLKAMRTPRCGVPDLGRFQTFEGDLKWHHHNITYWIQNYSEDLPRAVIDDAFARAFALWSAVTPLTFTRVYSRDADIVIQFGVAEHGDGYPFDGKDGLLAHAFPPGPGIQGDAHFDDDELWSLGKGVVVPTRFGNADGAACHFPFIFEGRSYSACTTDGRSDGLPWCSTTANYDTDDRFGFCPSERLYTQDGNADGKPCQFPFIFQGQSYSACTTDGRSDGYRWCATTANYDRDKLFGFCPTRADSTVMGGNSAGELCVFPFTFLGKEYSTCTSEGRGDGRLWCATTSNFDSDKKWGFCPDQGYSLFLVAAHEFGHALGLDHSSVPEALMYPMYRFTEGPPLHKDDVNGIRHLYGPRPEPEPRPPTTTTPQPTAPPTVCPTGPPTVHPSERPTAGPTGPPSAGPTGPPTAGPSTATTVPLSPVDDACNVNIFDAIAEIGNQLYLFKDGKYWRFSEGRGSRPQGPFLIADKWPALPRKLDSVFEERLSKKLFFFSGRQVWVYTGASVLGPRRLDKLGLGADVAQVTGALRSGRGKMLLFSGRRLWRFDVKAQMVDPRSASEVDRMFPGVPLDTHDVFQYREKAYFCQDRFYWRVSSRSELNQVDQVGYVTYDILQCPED
Sequence of active MMP1 (recombinant) (P03956 100-469): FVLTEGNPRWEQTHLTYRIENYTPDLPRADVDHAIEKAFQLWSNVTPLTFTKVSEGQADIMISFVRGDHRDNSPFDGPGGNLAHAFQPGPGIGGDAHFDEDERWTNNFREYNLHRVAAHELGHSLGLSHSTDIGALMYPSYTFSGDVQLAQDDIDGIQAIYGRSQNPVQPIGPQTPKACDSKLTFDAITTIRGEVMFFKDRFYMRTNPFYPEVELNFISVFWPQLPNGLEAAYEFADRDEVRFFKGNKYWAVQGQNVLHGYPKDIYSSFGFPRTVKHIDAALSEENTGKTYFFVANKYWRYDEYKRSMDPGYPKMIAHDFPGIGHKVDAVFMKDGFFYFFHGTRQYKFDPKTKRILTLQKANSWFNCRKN
Sequence of mIFNβ-LAP fusion protein (chain, as listed by the source): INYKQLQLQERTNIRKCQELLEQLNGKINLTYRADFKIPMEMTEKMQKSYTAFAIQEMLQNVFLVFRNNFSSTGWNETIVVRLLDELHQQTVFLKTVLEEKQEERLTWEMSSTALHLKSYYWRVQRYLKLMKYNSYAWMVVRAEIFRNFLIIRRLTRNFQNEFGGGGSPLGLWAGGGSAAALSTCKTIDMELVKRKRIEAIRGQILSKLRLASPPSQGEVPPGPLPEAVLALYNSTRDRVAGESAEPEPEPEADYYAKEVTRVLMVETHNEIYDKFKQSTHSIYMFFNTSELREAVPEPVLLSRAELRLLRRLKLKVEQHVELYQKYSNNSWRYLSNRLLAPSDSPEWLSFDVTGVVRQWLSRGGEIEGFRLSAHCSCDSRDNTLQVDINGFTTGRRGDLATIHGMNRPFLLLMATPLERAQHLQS
Sequence of LAP-mIFNβ fusion protein (chain, as listed by the source): as the sequence (chain, as listed by the source limits assumed) above
Sequence of 75 kDa glycosylated product of LAP-mIFNβ (chain, as listed by the source): as the sequence (chain, as listed by the source limits assumed) above

For the substance recombinant pro-MMP9, in the data set with mIFNβ-LAP fusion protein, the mIFNβ biological activity (U/ml) after MMP treatment was 1540 U/ml; the proteolytic cleavage result is “MMP9 could not cleave the fusion proteins”; the “proteolytic cleavage of immunoprecipitated protein, SDS-PAGE” value (“proteolytic cleavage … SDS-PAGE” below) is given as “pro-MMP9 or MMP1 did not cleave very efficiently the 57 kDa recombinant product”. In addition, in the data set on LAP-mIFNβ fusion protein, the mIFNβ biological activity (U/ml) after MMP treatment stood at 288 U/ml; the proteolytic cleavage result is reported as “MMP9 could not cleave the fusion proteins”; the “proteolytic cleavage … SDS-PAGE” value is given as “pro-MMP9 or MMP1 did not cleave very efficiently the 57 kDa recombinant product”.

With active MMP3 (recombinant), the “proteolytic cleavage … SDS-PAGE” value in data set [1] is “The LTBP band was also cleaved by MMP3”; in the data set with mIFNβ-LAP fusion protein, “MMP3 was capable on its own to digest it into several discreet bands”; with LAP-mIFNβ fusion protein, “MMP3 was capable on its own to digest it into several discreet bands”. Besides, the results for the mIFNβ biological activity (U/ml) after MMP treatment in the data set on mIFNβ-LAP fusion protein and with LAP-mIFNβ fusion protein were 3070 U/ml and 9220 U/ml, respectively.

For the substance active MMP1 (recombinant), the mIFNβ biological activity (U/ml) after MMP treatment with mIFNβ-LAP fusion protein and with LAP-mIFNβ fusion protein was 6140 U/ml throughout. In addition, the “proteolytic cleavage … SDS-PAGE” value is given as “pro-MMP9 or MMP1 did not cleave very efficiently the 57 kDa recombinant product” in the data set with mIFNβ-LAP fusion protein, “pro-MMP9 or MMP1 did not cleave very efficiently the 57 kDa recombinant product” in the data set with LAP-mIFNβ fusion protein, “MMP1 was capable of cleaving the glycosylated form of the fusion protein” in data set [2] and “MMP1 was capable of cleaving the glycosylated form of the fusion protein” in data set [3].

The substance active MMP3 (recombinant) (enzyme) yielded a fold activation of antiviral activity (non-concentrated supernatants from MTX amplified cells) in data set [4] of 32 fold.

active MMP1 (recombinant) (enzyme) came in with a fold activation of antiviral activity (non-concentrated supernatants from MTX amplified cells) in data set [4] of 21 fold.
